Tests used:
[1] = Circular dichroism spectroscopy (helicity, thermal stability); format: physicochemical
Procedure: Circular Dichroism Spectroscopy:
Circular Dichroism (CD) spectra were obtained using an AVIV Associates 62DS spectrometer equipped with a thermoelectric temperature controller. Spectra were obtained in 0.1, 0.5 and 1.0 cm quartz cells at 1° C. with 0.5 nm steps from 200 to 260 nm, 1.5 nm bandwidth and an averaging time of 4 sec/step. After the cell/buffer blank was subtracted, spectra were smoothed using a third-order least-squares polynomial fit with a conservative (5-10 point) window size to give random residuals. Mixing experiments were performed by comparing the spectrum of the two peptides mixed together in a 0.1 cm path length cell at the desired concentrations (referred to herein as the “experimental” spectrum) to the sum of the individual spectra of the peptides, each solution in a 0.1 cm path length cell (referred to herein as the “model spectrum” for no peptide interaction or “model for no interaction”).
Raw ellipticity values were converted to mean residue ellipticity using standard methods (Cantor & Schimmel, 1980, Biophysical Chemistry Part II: Techniques for the Study of Biological Structure and Function, W.H. Freeman and Co., New York). Conversions for the mixing experiment spectra were performed using a peptide length corresponding to the average of the two peptides. Thermal stability measurements were performed in 2° C. steps, with 1 minute equilibration times. Spectra were smoothed, converted to mean residue ellipticity, and the corresponding value at 222 nm noted from each spectrum. Percent helicity values were calculated using single value decomposition with a basis set of 33 protein spectra (Johnson & Curtis, 1990, Proteins: Structure, Function and Genetics 7:205-214).

[2] = Analytical ultracentrifugation (sedimentation equilibrium); format: physicochemical
Procedure: Analytical Ultracentrifugation:
Sedimentation equilibrium experiments were performed on a Beckman Optima XL-A analytical ultracentrifuge at 4° C. Six-channel cells (12 mm optical path length) were used with an An-60 Ti rotor operated at 13,500, 16,000, 17,000, 20,000, 21,000, 24,000, 25,000, 27,500, 30,000 and 35,000 rpm. The cell radii were scanned using 0.001 cm steps with 10 averages/scan. Data were analyzed using Beckman XLA data analysis software (version 3.01 for Windows) and Beckman-Origin software (version 3.78 for Windows). […] The partial specific volumes were held constant for all models considered.
Single data files were normalized to 270 nm absorbance values using Beer's Law. The data obtained with solutions containing the DP107-like peptides were then analyzed using a single ideal species model to determine a weight-averaged molecular weight (Mw). Diagnostic plots of Mw/Mw0 vs. rpm/rpm0 and Mw vs. radial concentration were used to test for sample homogeneity as described, e.g., by McRorie & Voelker, 1993, Self-Associating Systems in the Analytical Ultracentrifuge, Beckman Instruments, Inc., Palo Alto; and Yphantis et al., 1978, in Physical Aspects of Protein Interactions: Proceedings of the Symposium on Protein Interactions, American Chemical Society Meeting, Catsimpoolas, Ed., pp. 275-303, Elsevier, Miami Beach, Fla. When systematic residuals or a Mw higher than the monomer molecular weight indicated the presence of self-association, associative models such as monomer/trimer, monomer/tetramer and monomer/dimer/tetrarner were investigated. The suitability of a particular model (i.e., the goodness of fit) was judged by the trends observed in the residuals (Johnson & Straume, 1994, in Modern Analytical Ultracentrifugation, Schuster et al., eds., pp. 37-65, Birkhauser, Boston). Using the associative model which produced random residuals when fitting individual data files, a simultaneous, global, weighted fit of multiple data files (up to nine files with different concentrations and speeds) was performed to determine the association constant and 95% confidence intervals. To convert the resulting association constant from absorbance units to concentration units, it was assumed that the absorbance of the n-mer is n times that of the monomer.
The data obtained with DP107-like/DP178-like peptide mixtures were first analyzed with a single ideal species model. When a systematic trend in residuals coupled with the Mw not equal to a precise multimer of HR1+HR2 were obtained, and alternate fitting scheme was explored. For this approach, it was assumed that the solution contained fully associated HR1-HR2 complexes and unassociated DP107-like and DP178-like peptides. The mixtures were analyzed with a two-ideal species model, choosing one species to have a molecular weight of either 28,269 Da (corresponding to three DP107-like plus three DP178-like peptides) or […] (corresponding to four DP107-like plus four DP178-like peptides).

M41Δ178 fusion protein = assay: T83 ELARA (Biot-T20) IC50 Conc. (nM)
Description: Table printed on a drawing sheet, FIG.24A
Head of the field: T83 ELARA (Biot-T20) IC50 Conc. (nM)
The patent's description of the figure: FIGS. 24A-B: Circular dichroism, cell fusion and competitive inhibition data for alanine walk experiments for the peptide T20, which is also known as DP178.
First copying reader's note: The table breaks off at the bottom of the sheet and continues on FIG. 24B; substituted alanine residues are printed in bold, and the T1342 FP column is empty on this sheet.

[3] = tested on: HIV-1 (HIV-1LAI, HIV-1MN, HIV-1RF, HIV-1SF2); format: cell-based; settings: lowest concentration tested, FIG. 4B
Procedure: Approximately 7×10^4 Molt cells were incubated with 1×10^4 CEM cells chronically infected with the HIV-1LAI virus in 96-well plates (one-half area cluster plates; Costar, Cambridge, Mass.) in a final volume of 100 μl culture medium as previously described (Matthews, T. J. et al., 1987, Proc. Natl. Acad. Sci. USA 84: 5424-5428). Peptide inhibitors were added in a volume of 10 μl and the cell mixtures were incubated for 24 hr. at 37° C. At that time, multinucleated giant cells were estimated by microscopic examination at a 40× magnification which allowed visualization of the entire well in a single field.
The initial screen for antiviral activity assayed peptides' ability to block syncytium formation induced by overnight co-cultivation of uninfected Molt 4 cells with chronically HIV-1 infected CEM cells. […] In the first of these experiments, serial DP178 (SEQ ID NO:15) peptide concentrations between 10 μg/ml and 12.5 ng/ml were tested for blockade of the cell fusion process. For these experiments, CEM cells chronically infected with either HIV-1LAI, HIV-1MN, HIV-1RF, or HIV-1SF2 virus were cocultivated overnight with uninfected Molt 4 cells.
The next series of experiments involved the preparation and testing of a DP178 (SEQ ID NO:15) homolog for its ability to inhibit HIV-1-induced syncytia formation.
The next series of experiments involved a comparison of DP178 (SEQ ID NO:15) HIV-1 and HIV-2 inhibitory activity.

Substance | %-Helicity ([1]; 35 μM peptide, PBS pH 7) [%] | Tm (midpoint of melting transition) ([1]; 35 μM peptide, PBS pH 7) [°C] | IC50 (RSV) [µg/mL] | N-mer (weight-averaged molecular weight divided by monomer molecular weight) ([2]; 35 μM) | IC50 (M41Δ178 fusion protein) [nM] | also measured
Ac-AVSKVLHLEGEVNKIKSALLSTNKAVVSLSNGVSVLTSKVLDLKNYIDKQL-NH2 (N-terminus and C-terminus assumed) [Peptide T1584] | 90 | 53 | 0.23 | 2.1 | – | –
T1582: RSV HR1 (DP107-like) peptide of FIG. 28, shorter than T1581 (Ac-VLHLEGEVNKIKSALLSTNKAVVSLSNGVSVLTSKVLDLKNYIDK-NH2) [Peptide T1582] | 49 | 22 | – | 1.5 | – | –
Ac-YTSLIHSLIEESQNQQEKNEQAAAELDKWASLWNWF-NH2 [T872] | – | – | – | – | 66 | –
T871: T20 with three consecutive residues changed to three alanine residues (YTSLIHSLIEESQNQQEKNEQELLAAAKWASLWNWF) [Peptide T871] | – | – | – | – | 1160 | –
T876: T20 with three consecutive residues changed to three alanine residues (YTSLIHSLIAAAQNQQEKNEQELLELDKWASLWNWF) [Peptide T876] | – | – | – | – | 29 | –
Ac-YTSLIHSLIEESQNQQEKNEQELLELDKWAAAANWF-NH2 [T869] | – | – | – | – | 57 | –
Ac-SGVAVSKVLHLEGEVNKIKSALLSTNKAVVSLSNGVSVLTSKVLDLKNYIDKQL-NH2 (N-terminus and C-terminus assumed) [Peptide T1623] | 88 | 55 | 0.80 | 2.2 | – | –
Ac-VLHLEGEVNKIKSALLSTNKAVVSLSNGVSVLTSKVLDLKNYIDKQ-NH2 (N-terminus and C-terminus assumed) [Peptide T1581] | 69 | 31 | 3.36 | 1.8 | – | –
T1590: RSV HR1 (DP107-like) peptide of FIG. 28, shorter than T1581 (Ac-VLHLEGEVNKIKSALLSTNKAVVSLSNGVSVLTSKVLDLKNYI-NH2) [Peptide T1590] | 10 | <10 | – | – | – | –
AVSKVLHLEGEVNKIKSALLSTNKAVVSLSNGVSVLTSKVLDLKNYIDKQ (Ac-AVSKVLHLEGEVNKIKSALLSTNKAVVSLSNGVSVLTSKVLDLKNYIDKQ-NH2) [Peptide T1772, RSV DP107-like peptide, residues 153-202 of the RSV F-protein] | 83 | 42 | – | – | – | %-Helicity ([1]; 1 μM T1772): 67%; Tm ([1]; 1 μM T1772): 30 °C; %-Helicity ([1]; 10 μM T1772): 80%; Tm ([1]; 10 μM T1772): 32 °C; %-Helicity ([1]; 50 μM T1772): 84%; Tm ([1]; 50 μM T1772): 42 °C; %-Helicity ([1]; 100 μM T1772): 90%; Tm ([1]; 100 μM T1772): 46 °C; oligomerization state in solution (in words) [2]: trimeric self-association; N-mer (weight-averaged molecular weight divided by monomer molecular weight) ([2]; 25 μM determination): 2.4; Mw, single ideal species model, single data set ([2]; 100 μM, 24,000 rpm): 12,925 Da; average Mw relative to the monomer molecular weight ([2]; average over concentrations): 2.4 times
YTNTIYTLLEESQNQQEKNEQELLELDKWASLWNWF [DP-185] | – | – | – | – | – | concentration exhibiting inhibitory activity on HIV-1-induced syncytia formation [3]: ≤ 312.5 ng/mL
Ac-SKVLHLEGEVNKIKSALLSTNKAVVSLSNGVSVLTSKVLDLKNYIDKQ-NH2 [Peptide T1583] | – | – | 1.09 | – | – | –

Reference: patent US6623741B1, “Methods and compositions for inhibition of membrane fusion-associated events including RSV transmission” (Trimeris, Inc., priority 2000, dated 2003)
